Test results reported in patent publication US20200157180A1 (JIANGSU HENGRUI MEDICINE, published 2020).

Tests used:
[1] = target: human PD-L1 on CHO/PD-L1 cells (human, UniProt Q9NZQ7 19-290); experiment: cell-based or functional assay
human TGF-β1 [2] = target: T1, human TGF-β1 (human, UniProt P01137 279-390); experiment: cell-based or functional assay
human TGF-β1 [3] = target: T1, human TGF-β1; experiment: ELISA, coated human TGF-β1 1 µg/ml, anti-human Fc-HRP, OD450
Protocol: a. 96-well plates were coated with 100 μl/well of human TGF-β1 (8915LC, CST) at a concentration of 1 μg/ml at 4° C. overnight.
d. The wells were washed 3 times with 250 μl 1×PBST, e. 100 μl of Anti-human Fc antibody-HRP (1:4000) was added to each well and incubated for 40 minutes at 37° C.

T1 sequence (P01137 279-390 limits assumed): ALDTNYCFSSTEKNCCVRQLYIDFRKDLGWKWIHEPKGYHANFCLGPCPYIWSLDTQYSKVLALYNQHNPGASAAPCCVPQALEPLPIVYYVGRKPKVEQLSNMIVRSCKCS
Sequence of human PD-L1 on CHO/PD-L1 cells (Q9NZQ7 19-290): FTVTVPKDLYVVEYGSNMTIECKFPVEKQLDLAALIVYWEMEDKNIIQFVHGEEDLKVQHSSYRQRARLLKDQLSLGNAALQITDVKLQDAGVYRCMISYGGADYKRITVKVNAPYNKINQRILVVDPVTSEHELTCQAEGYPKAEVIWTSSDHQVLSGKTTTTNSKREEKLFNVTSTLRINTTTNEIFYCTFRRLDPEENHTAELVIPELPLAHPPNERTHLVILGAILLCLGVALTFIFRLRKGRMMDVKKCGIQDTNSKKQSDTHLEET

- EC50 (read off the curve) [1]: ~0.3 nM
- IC50, TGFβ-induced pSMAD3 reporter (luciferase) activity in HepG2 cells (human TGF-β1 [2]): > 500 nM
- binding result (human TGF-β1 [3]): no binding (tested: Log(pM) 6 (10^6 pM))
B1: PD-L1 antibody (antibody, human IgG4 S228P, kappa, F234A L235A, V domains shown)
VH: QVQLVQSGAEVKKPGASVKVSCKASGYTFTSYWMHWVRQAPGQGLEWMGRIGPNSGFTSYNEKFKNRVTMTRDTSTSTVYMELSSLRSEDTAVYYCARGGSSYDYFDYWGQGTTVTVSS
VL: DIVLTQSPASLAVSPGQRATITCRASESVSIHGTHLMHWYQQKPGQPPKLLIYAASNLESGVPARFSGSGSGTDFTLTINPVEAEDTANYYCQQSFEDPLTFGQGTKLEIKR
notes: Humanized IgG4 with S228P, F234A, L235A; last heavy chain residue K mutated to A; also called anti-PD-L1 antibody; PD-L1 antibody heavy chain: IgG4(AA)(S228P)
